Source: FireProtDB (doi:10.1021/bi9815243)

B1: Guanyl-specific ribonuclease T1, P00651 (parent)
chain: MMYSKLLTLTTLLLPTALALPSLVERACDYTCGSNCYSSSDVSTAQAAGYQLHEDGETVGSNSYPHKYNNYEGFDFSVSSPYYEWPILSSGDVYSGGSPGADRVVFNENNQLAGVITHTGASGNNFVECT
B2: Guanyl-specific ribonuclease Sa, P05798 (parent)
chain: DVSGTVCLSALPPEATDTLNLIASDGPFPYSQDGVVFQNRESVLPTQSYGYYHEYTVITPGARTRGTRRIITGEATQEDYYTGDHYATFSLIDQTC

Variants of: B1
Details: Aspergillus oryzae (strain ATCC 42149 / RIB 40); pH 7; 25 °C; Urea; CD; MOPS 30 mM; reversible: yes (>95%); structure 1RN1; whole UniProt chain shown

Variant | ddG of mutation (higher = less stable) [kcal/mol] | denaturant m value [kcal/mol/M] | denaturant midpoint (higher = more stable) [M] | unfolding free energy [kcal/mol]
N70A | 2 | 1.17 | 3.51 | 4.12
N70S | 1.9 | 1.22 | 3.6 | 4.39
N70D | 2 | 1.25 | 3.54 | 4.43

Same assay, conditions: Aspergillus oryzae (strain ATCC 42149 / RIB 40); pH 7; 25 °C; Urea; Fluorescence; MOPS 30 mM; transition: 2; reversible: Yes; structure 1RN1; whole UniProt chain shown

Variant | ddG of mutation (higher = less stable) [kcal/mol] | denaturant m value [kcal/mol/M] | denaturant midpoint (higher = more stable) [M] | unfolding free energy [kcal/mol]
N70A | 2 | 1.17 | 3.51 | 4.12
N70S | 1.9 | 1.22 | 3.6 | 4.39
N70D | 2 | 1.25 | 3.54 | 4.43

Same assay, conditions: Aspergillus oryzae (strain ATCC 42149 / RIB 40); pH 7; 50.8 °C; Thermal; CD; MOPS 30 mM; reversible: yes (>95%); structure 1RN1; whole UniProt chain shown

Variant | ddG of mutation (higher = less stable) [kcal/mol]
N70A | 1.6
N70S | 1.5
N70D | 1.6

Same assay, conditions: Aspergillus oryzae (strain ATCC 42149 / RIB 40); pH 7; Thermal; CD; MOPS 30 mM; reversible: yes (>95%); structure 1RN1; whole UniProt chain shown

Variant | Tm [°C] | change of melting temperature, mutant - wild type (higher = more stable) [°C] | unfolding enthalpy (van 't Hoff) [kcal/mol]
N70A | 45.6 | -5.2 | 86.8
N70S | 45.8 | -5 | 89.6
N70D | 45.3 | -5.5 | 84.2

Same assay, conditions: Aspergillus oryzae (strain ATCC 42149 / RIB 40); pH 7; Thermal; CD; MOPS 30 mM; transition: 2; reversible: Yes; structure 1RN1; whole UniProt chain shown

Variant | Tm [°C] | change of melting temperature, mutant - wild type (higher = more stable) [°C] | unfolding enthalpy (van 't Hoff) [kcal/mol]
N70A | 45.6 | -5.2 | 86.8
N70S | 45.8 | -5 | 89.6

Same assay, conditions: Aspergillus oryzae (strain ATCC 42149 / RIB 40); pH 2.7; 25 °C; Urea; CD; glycine 30 mM; reversible: yes (>95%); structure 1RN1; whole UniProt chain shown

Variant | ddG of mutation (higher = less stable) [kcal/mol] | denaturant m value [kcal/mol/M] | denaturant midpoint (higher = more stable) [M] | unfolding free energy [kcal/mol]
N70D | 0.5 | 1.66 | 3.45 | 5.71

Same assay, conditions: Aspergillus oryzae (strain ATCC 42149 / RIB 40); pH 2.7; 25 °C; Urea; Fluorescence; glycine 30 mM; transition: 2; reversible: Yes; structure 1RN1; whole UniProt chain shown

Variant | denaturant m value [kcal/mol/M] | denaturant midpoint (higher = more stable) [M] | unfolding free energy [kcal/mol]
N70D | 1.66 | 3.45 | 5.71

Variants of: B2
Details: Kitasatospora aureofaciens; pH 7; 48.4 °C; Thermal; CD; MOPS 30 mM; reversible: yes (>95%); structure 1RGG; whole UniProt chain shown

Variant | ddG of mutation (higher = less stable) [kcal/mol]
N39S | 2.3
N39A | 2.2
N39D | 1.5

Same assay, conditions: Kitasatospora aureofaciens; pH 7; Thermal; CD; MOPS 30 mM; reversible: yes (>95%); structure 1RGG; whole UniProt chain shown

Variant | Tm [°C] | change of melting temperature, mutant - wild type (higher = more stable) [°C] | unfolding enthalpy (van 't Hoff) [kcal/mol]
N39S | 40.4 | -8 | 73.5
N39A | 40.8 | -7.6 | 70.4
N39D | 43.2 | -5.2 | 83.5

Same assay, conditions: Kitasatospora aureofaciens; pH 7; Thermal; CD; MOPS 30 mM; transition: 2; reversible: Yes; structure 1RGG; whole UniProt chain shown

Variant | Tm [°C] | change of melting temperature, mutant - wild type (higher = more stable) [°C] | unfolding enthalpy (van 't Hoff) [kcal/mol]
N39S | 40.4 | -8 | 73.5
N39A | 40.8 | -7.6 | 70.4
N39D | 43.2 | -5.2 | 83.5

Same assay, conditions: Kitasatospora aureofaciens; pH 2; Thermal; CD; MOPS 30 mM; transition: 2; reversible: Yes; structure 1RGG; whole UniProt chain shown

Variant | Tm [°C] | change of melting temperature, mutant - wild type (higher = more stable) [°C] | unfolding enthalpy (van 't Hoff) [kcal/mol]
N39D | 23.3 | -4.7 | 50.3
